For one molecule, Kd results are on record in US20210403594A1 (IMMUNOGEN, published 2021).

The target in test [1] is cynomolgus EpCAM (cynomolgus monkey). The test is described as follows: flow cytometry on cyno kidney epithelial cells; Geo Mean FL1 against concentration; Alexa Fluor Plus 488 goat anti-mouse IgG (Example 2).
For the next test, the target named is T1, human EpCAM (CD326) (human, UniProt P16422 24-314).
T1 construct: whole, on cells; Antigen on the surface of the human cells used in flow cytometry and cytotoxicity assays; also called EpCAM on HSC2 cells; human-EpCAM expressing 300-19 cells
T1 sequence (looked up): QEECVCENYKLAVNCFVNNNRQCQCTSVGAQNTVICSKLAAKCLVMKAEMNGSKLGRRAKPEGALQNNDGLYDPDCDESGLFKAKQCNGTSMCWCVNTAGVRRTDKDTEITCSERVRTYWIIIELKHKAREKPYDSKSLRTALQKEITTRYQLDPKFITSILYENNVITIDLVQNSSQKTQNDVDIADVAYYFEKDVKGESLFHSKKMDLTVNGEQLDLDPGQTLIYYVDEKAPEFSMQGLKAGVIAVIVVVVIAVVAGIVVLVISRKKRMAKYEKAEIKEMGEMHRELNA
In words: flow cytometry on HSC2 cells; Geo Mean FL1 against concentration; Alexa Fluor Plus 488 goat anti-mouse IgG (Example 2).

Sequence of cynomolgus EpCAM (cynomolgus monkey) (Q1WER1 24-314): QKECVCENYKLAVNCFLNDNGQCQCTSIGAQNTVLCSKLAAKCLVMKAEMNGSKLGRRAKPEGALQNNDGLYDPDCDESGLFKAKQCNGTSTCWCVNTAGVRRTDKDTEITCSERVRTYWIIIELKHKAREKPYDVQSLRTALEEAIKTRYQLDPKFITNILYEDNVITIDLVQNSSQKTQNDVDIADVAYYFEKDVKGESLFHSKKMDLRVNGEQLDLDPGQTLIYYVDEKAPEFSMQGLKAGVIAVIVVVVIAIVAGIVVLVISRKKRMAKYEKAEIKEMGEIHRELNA

B1: mEpCAM23 (antibody, mouse IgG2b, kappa)
heavy: EVKLEESGPALVKPGASVRISCKASGYTFTNYYIHWVKQRPGQGLDYIGWIYPGNVYIQYNEKFKGKATLTADKSSSTAFMQLSSLTSEDSAVYFCARDGPWFAYWGQGTLVTVSSAKTTPPSVYPLAPGCGDTTGSSVTLGCLVKGYFPESVTVTWNSGSLSSSVHTFPALLQSGLYTMSSSVTVPSSTWPSQTVTCSVAHPASSTTVDKKLEPSGPISTINPCPPCKECHKCPAPNLEGGPSVFIFPPNIKDVLMISLTPKVTCVVVDVSEDDPDVRISWFVNNVEVHTAQTQTHREDYNSTIRVVSALPIQHQDWMSGKEFKCKVNNKDLPSPIERTISKIKGLVRAPQVYILPPPAEQLSRKDVSLTCLVVGFNPGDISVEWTSNGHTEENYKDTAPVLDSDGSYFIYSKLDIKTSKWEKTDSFSCNVRHEGLKNYYLKKTISRSPGK
light: DIVLTQTPFSNPVTLGTSASISCRSSKSLLHSDGFTYLYWFLQKPGQSPHLLIYQTSNLASGVPDRFSSSGSGTDFTLRISRVEAEDVGVYYCAQNLELPNTFGGGTKLEIKRADAAPTVSIFPPSSEQLTSGGASVVCFLNNFYPKDINVKWKIDGSERQNGVLNSWTDQDSKDSTYSMSSTLTLTKDEYERHNSYTCEATHKTSTSPIVKSFNRNEC
notes: also called muEpCAM-23; muEpCAM23
Consider B1, for which the Kd in test [1] came out at 0.79 nM; with human EpCAM (CD326), 0.38 nM.
